The values below come from paper PMC8595651.

The target in the assay is Fibrillar type I collagen (PureCol atelo-type I collagen, Advanced Biomatrix Cat# 5005) (UniProt P02453). The assay is described as follows: ELISA.
Sequence of UniProt P02453 (P02453 162-1217, chain 1 of 2): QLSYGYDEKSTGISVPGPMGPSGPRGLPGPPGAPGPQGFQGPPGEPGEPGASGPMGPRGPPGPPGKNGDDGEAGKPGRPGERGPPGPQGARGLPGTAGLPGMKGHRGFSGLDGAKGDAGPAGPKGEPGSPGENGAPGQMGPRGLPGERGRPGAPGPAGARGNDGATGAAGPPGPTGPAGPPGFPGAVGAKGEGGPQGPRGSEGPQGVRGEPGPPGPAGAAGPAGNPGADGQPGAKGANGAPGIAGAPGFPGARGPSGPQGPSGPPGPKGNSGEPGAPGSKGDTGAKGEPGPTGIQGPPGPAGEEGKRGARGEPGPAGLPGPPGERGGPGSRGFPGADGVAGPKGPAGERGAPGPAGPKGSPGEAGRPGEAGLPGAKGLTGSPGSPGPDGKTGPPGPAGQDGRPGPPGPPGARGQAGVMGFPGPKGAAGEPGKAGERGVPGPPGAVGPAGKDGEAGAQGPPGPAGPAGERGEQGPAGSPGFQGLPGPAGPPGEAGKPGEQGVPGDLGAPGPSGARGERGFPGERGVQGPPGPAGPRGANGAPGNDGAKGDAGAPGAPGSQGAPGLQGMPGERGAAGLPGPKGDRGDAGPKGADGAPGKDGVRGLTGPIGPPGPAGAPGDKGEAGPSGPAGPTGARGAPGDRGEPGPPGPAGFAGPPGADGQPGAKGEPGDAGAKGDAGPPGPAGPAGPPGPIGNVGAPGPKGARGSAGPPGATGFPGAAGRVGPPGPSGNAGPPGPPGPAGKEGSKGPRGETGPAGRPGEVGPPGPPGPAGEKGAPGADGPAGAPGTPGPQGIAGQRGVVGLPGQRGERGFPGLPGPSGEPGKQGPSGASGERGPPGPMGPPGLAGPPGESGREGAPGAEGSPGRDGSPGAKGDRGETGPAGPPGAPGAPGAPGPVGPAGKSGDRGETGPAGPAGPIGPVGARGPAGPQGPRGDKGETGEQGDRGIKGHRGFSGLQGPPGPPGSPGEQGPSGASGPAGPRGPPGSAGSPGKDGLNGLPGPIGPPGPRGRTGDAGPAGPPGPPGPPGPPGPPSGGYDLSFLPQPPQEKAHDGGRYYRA
Sequence of UniProt P02453 (P02465 80-1117, chain 2 of 2, further chain): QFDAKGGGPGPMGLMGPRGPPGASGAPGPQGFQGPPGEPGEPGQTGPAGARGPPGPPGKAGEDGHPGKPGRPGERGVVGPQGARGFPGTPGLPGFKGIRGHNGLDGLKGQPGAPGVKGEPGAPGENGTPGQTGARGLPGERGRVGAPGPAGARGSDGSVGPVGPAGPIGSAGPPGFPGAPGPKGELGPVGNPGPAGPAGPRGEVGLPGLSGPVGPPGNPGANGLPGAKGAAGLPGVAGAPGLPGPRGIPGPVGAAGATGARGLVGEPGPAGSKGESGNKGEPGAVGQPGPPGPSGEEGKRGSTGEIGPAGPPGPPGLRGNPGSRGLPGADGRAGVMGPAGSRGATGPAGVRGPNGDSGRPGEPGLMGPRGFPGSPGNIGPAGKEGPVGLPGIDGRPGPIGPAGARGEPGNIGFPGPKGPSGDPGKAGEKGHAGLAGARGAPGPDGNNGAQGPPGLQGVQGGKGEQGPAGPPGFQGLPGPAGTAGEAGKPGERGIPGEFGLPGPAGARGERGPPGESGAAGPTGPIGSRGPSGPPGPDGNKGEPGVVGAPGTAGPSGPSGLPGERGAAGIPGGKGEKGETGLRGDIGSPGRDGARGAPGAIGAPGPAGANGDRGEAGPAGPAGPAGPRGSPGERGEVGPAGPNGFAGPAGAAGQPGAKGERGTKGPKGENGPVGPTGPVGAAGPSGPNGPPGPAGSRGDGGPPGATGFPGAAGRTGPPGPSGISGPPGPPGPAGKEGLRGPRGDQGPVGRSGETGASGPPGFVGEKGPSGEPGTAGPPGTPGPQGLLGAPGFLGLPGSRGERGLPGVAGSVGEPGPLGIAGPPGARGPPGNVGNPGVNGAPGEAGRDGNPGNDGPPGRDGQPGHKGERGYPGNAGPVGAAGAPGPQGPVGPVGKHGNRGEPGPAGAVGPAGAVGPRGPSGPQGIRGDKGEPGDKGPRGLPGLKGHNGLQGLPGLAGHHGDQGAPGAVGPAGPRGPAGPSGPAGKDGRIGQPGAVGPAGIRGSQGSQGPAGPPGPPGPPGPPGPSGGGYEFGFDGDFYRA

Substance “WISP1ΔCT (form of WISP1 lacking a CT-domain), overexpressed in 4T1 cells (conditioned medium) (domain or fragment)” displayed a binding relative to that of WISP1 at equal concentrations of 75%.
